Measured values taken from ChEMBL document CHEMBL1145182, “Molecular dynamics simulations of the TEM-1 beta-lactamase complexed with cephalothin” (J Med Chem, 2005).

Experiments:
[1] = substrate: CC(=O)OCC1=C(C(=O)O)N2C(=O)[C@@H](NC(=O)Cc3cccs3)[C@H]2SC1; experiment: (§1) Binding affinity for TEM-1 beta-lactamase; settings: Escherichia coli
[2] = substrate: CC1(C)S[C@@H]2[C@H](NC(=O)Cc3ccccc3)C(=O)N2[C@H]1C(=O)O; experiment: as §1; settings: Escherichia coli

B1: Beta-lactamase TEM (Escherichia coli), P62593 (protein)
chain: MSIQHFRVALIPFFAAFCLPVFAHPETLVKVKDAEDQLGARVGYIELDLNSGKILESFRPEERFPMMSTFKVLLCGAVLSRVDAGQEQLGRRIHYSQNDLVEYSPVTEKHLTDGMTVRELCSAAITMSDNTAANLLLTTIGGPKELTAFLHNMGDHVTRLDRWEPELNEAIPNDERDTTMPAAMATTLRKLLTGELLTLASRQQLIDWMEADKVAGPLLRSALPAGWFIADKSGAGERGSRGIIAALGPDGKPSRIVVIYTTGSQATMDERNRQIAEIGASLIKHW
- Km [1]: 347 µM
- Km [2]: 75 µM
